Results on 167 variants are retold here after the RNAGym collection of RNA variant scans (doi:10.7554/elife.80360).

B1: CPEB3 Ribozyme (parent)
chain: GGGGGCCACAGCAGAAGCGUUCACGUCGCGGCCCCUGUCAGAUUCUGGUGAAUCUGCGAAUUCUGCUGU

The variants in this data set derive from B1. Nature of the data set: self-cleavage, relative activity (ratio to wild type); higher = more cleavage; co-transcriptional.
Consider G4A A59G, for which the self-cleavage amounted to 0.749.

As to G4A C24U, the self-cleavage was 0.352.

Take G4A C24G: the self-cleavage was found to be 0.177.

In the case of G4A C24A, the self-cleavage came to 0.295.

Regarding G4A U46C, the self-cleavage is 0.828.

Regarding G3U U69G, the self-cleavage was 0.283.

Turning to G3U U69A, the self-cleavage was 0.301.

For G3U U69C, the self-cleavage came out at 0.46.

As to G4C C66A, the self-cleavage was found to be 0.396.

G4C C66U: the self-cleavage is 0.678.

For G4C C66G, the self-cleavage worked out at 0.229.

G3U C29U: the self-cleavage came out at 0.0459.

G3U A51C: the self-cleavage amounted to 0.105.

As to G3U A51U, the self-cleavage was determined as 0.17.

With G4C G14U, the self-cleavage was determined as 0.149.

As to G4C G14A, the self-cleavage amounted to 0.223.

For G4C G14C, the self-cleavage is 0.101.

With G4C G5U, the self-cleavage was found to be 0.0341.

G4C G5C: the self-cleavage amounted to 0.212.

Consider G4A A60G, for which the self-cleavage came to 0.475.

As for G4A A60C, the self-cleavage is 0.217.

Turning to G4A A60U, the self-cleavage came to 0.264.

In the case of G3U A8U, the self-cleavage was 0.121.

On to G3U A8C, for which the self-cleavage is 0.146.

With G3U A8G, the self-cleavage was 0.0722.

As for G4C G19A, the self-cleavage is 0.0646.

As for G4C A8C, the self-cleavage turned out to be 0.578.

Regarding G4C A8U, the self-cleavage worked out at 0.617.

G4C A8G: the self-cleavage was 0.545.

As for G3U U26C, the self-cleavage stood at 0.107.

Consider G3U U26G, for which the self-cleavage was determined as 0.0677.

For the variant G4A C39U, the self-cleavage worked out at 0.544.

Consider G4A C39A, for which the self-cleavage came out at 0.521.

Consider G4C A51G, for which the self-cleavage came out at 0.567.

On to G4C A51C, for which the self-cleavage came to 0.381.

For the variant G4C A51U, the self-cleavage turned out to be 0.493.

Take G3U: the self-cleavage turned out to be 0.195.

On to G4A A52U, for which the self-cleavage worked out at 0.882.

For G4A U69A, the self-cleavage was found to be 0.912.

For the variant G4A U69G, the self-cleavage worked out at 0.985.

In the case of G3U C66G, the self-cleavage is 0.145.

G3U C66U: the self-cleavage stood at 0.151.

Regarding G3U G47U, the self-cleavage is 0.175.

As to G3U G47C, the self-cleavage is 0.177.

G3U G41U: the self-cleavage came to 0.0372.

As to G3U G41C, the self-cleavage was determined as 0.0828.

Consider G3U G41A, for which the self-cleavage amounted to 0.0442.

For G4A C34A, the self-cleavage was found to be 0.31.

For G4A C34U, the self-cleavage is 0.627.

As to G4A A40C, the self-cleavage turned out to be 0.216.

Turning to G3U A13G, the self-cleavage turned out to be 0.181.

In the case of G3U A13C, the self-cleavage is 0.0166.

G3U A13U: the self-cleavage came to 0.105.

For G3U U43A, the self-cleavage turned out to be 0.0999.

In the case of G3U U43C, the self-cleavage was determined as 0.0372.

For the variant G4A C35A, the self-cleavage worked out at 0.175.

As to G4A C35G, the self-cleavage amounted to 0.162.

For G4A G25U, the self-cleavage amounted to 0.0834.

G4A G25A: the self-cleavage was 0.117.

G4A A10C: the self-cleavage worked out at 0.968.

For the variant G4A A10G, the self-cleavage was 0.868.

Regarding G4C C39A, the self-cleavage was found to be 0.223.

On to G4C C39U, for which the self-cleavage is 0.261.

In the case of G3C U67A, the self-cleavage worked out at 0.239.

G3C U67G: the self-cleavage is 0.219.

For G3U A59U, the self-cleavage worked out at 0.0422.

In the case of G3U A59C, the self-cleavage is 0.0549.

Take G4C C35A: the self-cleavage came out at 0.0948.

As to G4C C35G, the self-cleavage came to 0.0833.

In the case of G3U C27U, the self-cleavage turned out to be 0.0361.

With G3U C27G, the self-cleavage was 0.0583.

Turning to G4A C29G, the self-cleavage was 0.103.

Turning to G4A C29U, the self-cleavage amounted to 0.216.

Take G4C C54G: the self-cleavage is 0.175.

Regarding G4C C54U, the self-cleavage stood at 0.562.

G4C C54A: the self-cleavage amounted to 0.225.

G4C A52G: the self-cleavage worked out at 0.53.

In the case of G4C A52C, the self-cleavage is 0.38.

For the variant G3U C12A, the self-cleavage was determined as 0.0925.

Turning to G4A U43G, the self-cleavage was 0.511.

Regarding G4A U43A, the self-cleavage came out at 0.683.

With G4A U43C, the self-cleavage stood at 0.651.

As to G3U U53C, the self-cleavage was determined as 0.0626.

G3U U53A: the self-cleavage came out at 0.112.

For the variant G4A C6A, the self-cleavage was found to be 0.0589.

With G4A U26C, the self-cleavage was determined as 0.827.

Consider G3U G37A, for which the self-cleavage is 0.0344.

For the variant G3U G37U, the self-cleavage worked out at 0.0515.

Take G3U G37C: the self-cleavage was found to be 0.035.

In the case of G4C C24A, the self-cleavage was found to be 0.167.

With G4C C24G, the self-cleavage turned out to be 0.117.

For the variant G4C A60U, the self-cleavage was determined as 0.174.

Consider G3U G4C, for which the self-cleavage came out at 0.0209.

Turning to G3U G4A, the self-cleavage was found to be 0.0885.

For G4A U21G, the self-cleavage turned out to be 0.253.

For the variant G4A U21C, the self-cleavage turned out to be 0.465.

G4A G68U: the self-cleavage was 0.978.

Consider G3U G68A, for which the self-cleavage was 0.554.

As for G3U G31A, the self-cleavage was 0.074.

For the variant G3U G31U, the self-cleavage stood at 0.0468.

G4C C45G: the self-cleavage stood at 0.477.

With G4C C45A, the self-cleavage is 0.419.

Regarding G4C C45U, the self-cleavage is 0.733.

As to G3C U69C, the self-cleavage is 0.495.

With G3C U69G, the self-cleavage stood at 0.222.

Regarding G3U C34U, the self-cleavage stood at 0.381.

With G3U C34A, the self-cleavage was 0.687.

With G4A U62C, the self-cleavage is 0.587.

In the case of G4A U53C, the self-cleavage came to 0.617.

Take G3U C54U: the self-cleavage was found to be 0.148.

On to G3U C54G, for which the self-cleavage came out at 0.0746.

For the variant G3U C54A, the self-cleavage was determined as 0.0729.

Regarding G4A C27U, the self-cleavage stood at 0.19.

For the variant G4A C27A, the self-cleavage came to 0.212.

For the variant G3U A40U, the self-cleavage is 0.0917.

Consider G3U A40G, for which the self-cleavage is 0.0981.

Regarding G4C A23C, the self-cleavage worked out at 0.432.

Consider G4C A23G, for which the self-cleavage was 0.349.

As for G3U G28C, the self-cleavage amounted to 0.0382.

With G3U G28U, the self-cleavage was 0.0309.

On to G4C G17C, for which the self-cleavage is 0.0898.

For the variant G3U U67A, the self-cleavage stood at 0.406.

Turning to G4A C45A, the self-cleavage was determined as 0.808.

Regarding G4A C45U, the self-cleavage stood at 0.909.

Take G4A G41A: the self-cleavage was 0.506.

Regarding G4A U67C, the self-cleavage worked out at 0.986.

On to G4A U67G, for which the self-cleavage was 0.918.

As for G4A U67A, the self-cleavage amounted to 0.92.

As to G3U U20A, the self-cleavage turned out to be 0.0443.

With G3U U46C, the self-cleavage was determined as 0.105.

With G3U U46G, the self-cleavage came to 0.161.

As for G4C C29G, the self-cleavage was determined as 0.0753.

Take G4C C29A: the self-cleavage turned out to be 0.0787.

For G3U C32U, the self-cleavage stood at 0.0936.

As to G4A G50A, the self-cleavage turned out to be 0.839.

On to G4A G50C, for which the self-cleavage is 0.808.

Take G4A G50U: the self-cleavage came to 0.849.

Turning to G4A G65U, the self-cleavage was found to be 0.406.

Consider G4A G65A, for which the self-cleavage was 0.735.

With G4A G65C, the self-cleavage is 0.418.

For the variant G4A A23G, the self-cleavage turned out to be 0.827.

On to G4A A23U, for which the self-cleavage turned out to be 0.886.

With G4A C22G, the self-cleavage amounted to 0.165.

As to G4A C22U, the self-cleavage stood at 0.157.

As to G3U C22G, the self-cleavage stood at 0.0464.

G3U C22U: the self-cleavage worked out at 0.047.

With G3U C22A, the self-cleavage came to 0.051.

Regarding G3U G14U, the self-cleavage is 0.0458.

Regarding G3U G14C, the self-cleavage was determined as 0.0411.

On to G4A C63U, for which the self-cleavage is 0.84.

On to G3U G11C, for which the self-cleavage came to 0.0634.

For G4A C54G, the self-cleavage turned out to be 0.388.

Regarding G4C G25C, the self-cleavage was determined as 0.102.

Consider G4C G25A, for which the self-cleavage amounted to 0.0767.

Take G4A G47C: the self-cleavage came to 0.901.

Take G4A G47A: the self-cleavage turned out to be 0.895.

For the variant G4A U61G, the self-cleavage was 0.508.

Regarding G4A U61A, the self-cleavage turned out to be 0.477.

As for G3U G5A, the self-cleavage is 0.0231.

In the case of G3U G5C, the self-cleavage was found to be 0.0208.

Consider G4C A10U, for which the self-cleavage was determined as 0.802.

Turning to G3U U61A, the self-cleavage came to 0.0525.

On to G3U U61C, for which the self-cleavage turned out to be 0.0446.

On to G3U U55C, for which the self-cleavage is 0.104.

Consider G4A A8G, for which the self-cleavage came to 0.698.

G4A A8C: the self-cleavage was found to be 0.897.

For G4A A8U, the self-cleavage is 0.86.
